Assay results taken from patent publication US20240002541A1 (Johns Hopkins, published 2024).

Key:
[1] = target: T1, TRBV5-5 on human T cells and HPB-ALL cells (human, UniProt A0A597 22-114); experiment: cell-based or functional assay
T1 sequence (TCR beta, looked up): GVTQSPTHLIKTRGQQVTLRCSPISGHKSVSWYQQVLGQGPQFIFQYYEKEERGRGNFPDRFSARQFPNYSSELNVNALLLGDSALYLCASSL

[2] = target: T1, TRBV5-5 on human T cells and HPB-ALL …; experiment: cell-based or functional assay; remark: listed apart in the source
TRBV5-5 = target: T2, TRBV5-5 (UniProt A0A597 22-114, limits assumed); experiment: not stated (column 'Affinity' of Table 1)
T2 construct: The antigen construct is not described; also called T cell receptor β chain variable 5-5
T2 sequence (TCR beta, looked up): T1 sequence (TCR beta, looked up)

TRBV12-3 on Jurkat cells [3] = target: T3, TRBV12-3 on Jurkat cells (human, UniProt P01733 22-115); experiment: cell-based or functional assay
T3 sequence (TCR beta, looked up): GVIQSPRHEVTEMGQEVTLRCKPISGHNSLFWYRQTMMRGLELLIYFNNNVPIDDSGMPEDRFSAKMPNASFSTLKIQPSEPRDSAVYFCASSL

TRBV12-3 on Jurkat cells [4] = target: T3, TRBV12-3 on Jurkat cells; experiment: cell-based or functional assay; remark: listed apart in the source
CD19 = target: T4, CD19 (UniProt P15391 20-291, limits assumed); experiment: not stated (column 'Affinity' of Table 1)
T4 construct: The antigen construct is not described
T4 sequence (looked up): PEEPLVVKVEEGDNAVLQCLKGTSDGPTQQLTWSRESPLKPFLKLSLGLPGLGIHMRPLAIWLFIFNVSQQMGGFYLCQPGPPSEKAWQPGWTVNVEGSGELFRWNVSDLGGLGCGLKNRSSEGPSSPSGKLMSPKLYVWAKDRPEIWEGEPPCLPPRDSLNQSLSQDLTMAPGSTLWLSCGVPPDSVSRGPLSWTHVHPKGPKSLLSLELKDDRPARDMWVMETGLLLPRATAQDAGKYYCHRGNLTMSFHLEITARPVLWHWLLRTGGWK

CD3 = target: T5, CD3 (UniProt P07766 23-126); experiment: not stated (column 'Affinity' of Table 1)
T5 construct: The antigen construct is not described; also called cluster of differentiation 3; CD3ε subunit

TRBV12 = target: T6, TRBV12; experiment: not stated (column 'Affinity' of Table 1)
T6 chain: T3 sequence (TCR beta, looked up)

TRBC1 = target: T7, TRBC1 (UniProt P01850 1-130, limits assumed); experiment: not stated (column 'Affinity' of Table 1)
T7 construct: The antigen construct is not described; also called T cell receptor β chain constant 1; Cβ1 TCR
T7 sequence (P01850 1-130 limits assumed): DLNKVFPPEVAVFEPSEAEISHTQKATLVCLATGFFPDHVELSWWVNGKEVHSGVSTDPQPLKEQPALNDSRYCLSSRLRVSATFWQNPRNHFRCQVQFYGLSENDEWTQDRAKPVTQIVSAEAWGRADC

T5 sequence (P07766 23-126): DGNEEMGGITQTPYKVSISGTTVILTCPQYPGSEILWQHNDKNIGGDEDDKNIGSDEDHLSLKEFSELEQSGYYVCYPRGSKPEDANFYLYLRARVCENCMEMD

B1: anti-TRBV5-5 BsAb (α-V5) (bispecific antibody)
chain: DIQMTQTTSSLSASLGDRVTITCSASQGISNYLNWYQQKPDGTVKLLIYYTSSLHSGVPSRFSGSGSGTDYSLTISNLEPEDIATYYCQQYSKLPRTFGGGTKVEIKGGGGSEVQLVESGGGLVQPGGSLRLSCAASGYSFTGYTMNWVRQAPGKGLEWVALINPYKGVSTYNQKFKDRFTISVDKSKNTAYLQMNSLRAEDTAVYYCARSGYYGDSDWYFDVWGQGTLVTVSSGGGGSGGGGSGGGGSDIQMTQSPSSLSASVGDRVTITCRASQDIRNYLNWYQQKPGKAPKLLIYYTSRLESGVPSRFSGSGSGTDYTLTISSLQPEDFATYYCQQGNTLPWTFGQGTKVEIKGGGGSQVQLKESGPGLVAPSQSLSITCTVSGFSLTAYGVNWVRQPPGKGLEWLGMIWGDGNTDYNSALKSRLSISKDNSKSQVFLKMNSLQTDDTARYYCARDRVTATLYAMDYWGQGTSVTVSSHHHHHH
In the case of B1, the “EC50 of the loss of HPB-ALL viability (luminescence), 5x10^4 HPB-ALL cells with 5x10^4 normal human T cells, 17 hours” value [1] is reported as 0.00209 nM, the “EC50 of GM-CSF release (Luminex), HPB-ALL WT + T cells, 17 hours” value [2] is reported as 0.0423 nM and the “EC50 of IFNγ release (Luminex), HPB-ALL WT + T cells, 17 hours” value [2] is reported as 0.0311 nM. For the same binder, the “EC50 of IL2 release (Luminex), HPB-ALL WT + T cells, 17 hours” value [2] was 0.0945 nM, the “EC50 of IL5 release (Luminex), HPB-ALL WT + T cells, 17 hours” value [2] was 0.0544 nM and the “EC50 of TNFα release (Luminex), HPB-ALL WT + T cells, 17 hours” value [2] was 0.166 nM.

B2: α-TRBV5-5 scFv (clone TM23) (scFv, V domains shown)
VH: QVQLKESGPGLVAPSQSLSITCTVSGFSLTAYGVNWVRQPPGKGLEWLGMIWGDGNTDYNSALKSRLSISKDNSKSQVFLKMNSLQTDDTARYYCARDRVTATLYAMDYWGQGTSVTVSS
VL: DIQMTQTTSSLSASLGDRVTITCSASQGISNYLNWYQQKPDGTVKLLIYYTSSLHSGVPSRFSGSGSGTDYSLTISNLEPEDIATYYCQQYSKLPRTFGGGTKVEIK
notes: also called anti-TRBV5-5 scFv
B2 was tested, and the Kd (TRBV5-5) was 25.2 nM.

B3: anti-TRBV12 BsAb (α-V12) (bispecific antibody)
chain: ENVLTQSPAIMSASLGEKVTMSCRASSSVNYIYWYQQKSDASPKLWIYYTSNLAPGVPTRFSGSGSGNSYSLTISSMEGEDAATYYCQQFTSSPFTFGQGTKLEIKGGGGSEVQLVESGGGLVQPGGSLRLSCAASGYSFTGYTMNWVRQAPGKGLEWVALINPYKGVSTYNQKFKDRFTISVDKSKNTAYLQMNSLRAEDTAVYYCARSGYYGDSDWYFDVWGQGTLVTVSSGGGGSGGGGSGGGGSDIQMTQSPSSLSASVGDRVTITCRASQDIRNYLNWYQQKPGKAPKLLIYYTSRLESGVPSRFSGSGSGTDYTLTISSLQPEDFATYYCQQGNTLPWTFGQGTKVEIKGGGGSDVQLVESGGGLVQPGGSRKLSCAASGFTFSNFGMHWVRQAPDKGLEWVAYISSGSSTIYYADTLKGRFTISRDNPKNTLFLQMTSLRSEDTAMYYCARRGEGAMDYWGQGTSVTVSSHHHHHH
For B3, the “EC50 of GM-CSF release (Luminex), Jurkat WT + T cells, 17 hours” value (TRBV12-3 on Jurkat cells [3]) was 0.0121 nM, the “EC50 of IFNγ release (Luminex), Jurkat WT + T cells, 17 hours” value (TRBV12-3 on Jurkat cells [3]) was 0.0235 nM and the “EC50 of IL2 release (Luminex), Jurkat WT + T cells, 17 hours” value (TRBV12-3 on Jurkat cells [3]) was 0.0205 nM. For the same binder, the “EC50 of IL5 release (Luminex), Jurkat WT + T cells, 17 hours” value (TRBV12-3 on Jurkat cells [3]) was 0.0124 nM, the “EC50 of TNFα release (Luminex), Jurkat WT + T cells, 17 hours” value (TRBV12-3 on Jurkat cells [3]) was 0.0138 nM and the “EC50 of the loss of Jurkat viability (luminescence), 5x10^4 Jurkat cells with 5x10^4 normal human T cells, 17 hours” value (TRBV12-3 on Jurkat cells [4]) was 0.00078 nM.

B4: α-CD19 scFv (clone HD37) (scFv, V domains shown)
VH: QVQLQQSGAELVRPGSSVKISCKASGYAFSSYWMNWVKQRPGQGLEWIGQIWPGDGDTNYNGKFKGKATLTADESSSTAYMQLSSLASEDSAVYFCARRETTTVGRYYYAMDYWGQGTTVTVSS
VL: DIQLTQSPASLAVSLGQRATISCKASQSVDYDGDSYLNWYQQIPGQPPKLLIYDASNLVSGIPPRFSGSGSGTDFTLNIHPVEKVDAATYHCQQSTEDPWTFGGGTKLEIK
notes: also called anti-CD19 scFv
Work on B4 yielded a Kd (CD19) of 0.3 nM.

B5: α-CD3 scFv (clone UCHT1.v9) (scFv, V domains shown)
VH: EVQLVESGGGLVQPGGSLRLSCAASGYSFTGYTMNWVRQAPGKGLEWVALINPYKGVSTYNQKFKDRFTISVDKSKNTAYLQMNSLRAEDTAVYYCARSGYYGDSDWYFDVWGQGTLVTVSS
VL: DIQMTQSPSSLSASVGDRVTITCRASQDIRNYLNWYQQKPGKAPKLLIYYTSRLESGVPSRFSGSGSGTDYTLTISSLQPEDFATYYCQQGNTLPWTFGQGTKVEIK
notes: also called anti-CD3 scFv
B5 showed a Kd (CD3) of 4.7 nM.

B6: α-TRBV12 scFv (clone 16G8) (scFv, V domains shown)
VH: DVQLVESGGGLVQPGGSRKLSCAASGFTFSNFGMHWVRQAPDKGLEWVAYISSGSSTIYYADTLKGRFTISRDNPKNTLFLQMTSLRSEDTAMYYCARRGEGAMDYWGQGTSVTVSS
VL: ENVLTQSPAIMSASLGEKVTMSCRASSSVNYIYWYQQKSDASPKLWIYYTSNLAPGVPTRFSGSGSGNSYSLTISSMEGEDAATYYCQQFTSSPFTFGQGTKLEIK
notes: also called anti-TRBV12 scFv
Binder B6 has a Kd (TRBV12) of 2.6 nM.

B7: α-TRBC1 scFv (clone Jovi-1) (scFv, V domains shown)
VH: EVRLQQSGPDLIKPGASVKMSCKASGYTFTGYVMHWVKQRPGQGLEWIGFINPYNDDIQSNERFRGKATLTSDKSSTTAYMELSSLTSEDSAVYYCARGAGYNFDGAYRFFDFWGQGTTLTVSS
VL: DVVMTQSPLSLPVSLGDQASISCRSSQRLVHSNGNTYLHWYLQKPGQSPKLLIYRVSNRFPGVPDRFSGSGSGTDFTLKISRVEAEDLGIYFCSQSTHVPYTFGGGTKLEIKR
notes: also called anti-TRBC1 scFv
Binder B7 has a Kd (TRBC1) of 0.4 nM.
